Assay results published in patent US20130315910A1 (Xencor, published 2013).

How the values were obtained:
[1] = biological target: T1, human FcγRI receptor protein (R&D Systems) (human, UniProt P12314 16-288); experiment: SPR
T1 construct: also called soluble FcγRI; solFcγRI

[2] = biological target: T2, human FcγRIIa (131R), His- and GST-tagged (human, UniProt P12318 34-217); experiment: SPR
T2 construct: Expressed in HEK293T cells, purified by nickel chromatography; also called R131 FcγRIIa; not shown: 6xHis and GST tags of the pTT5 vector
T2 sequence (looked up): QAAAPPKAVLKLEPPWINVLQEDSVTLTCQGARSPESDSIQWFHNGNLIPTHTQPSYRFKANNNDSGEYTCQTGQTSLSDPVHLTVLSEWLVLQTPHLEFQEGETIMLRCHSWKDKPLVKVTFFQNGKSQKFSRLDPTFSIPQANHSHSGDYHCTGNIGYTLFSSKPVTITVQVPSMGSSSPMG

[3] = biological target: T3, human FcγRIIa (131H), His- and GST-tagged (human, UniProt P12318 34-217); experiment: SPR
T3 construct: also called H131 FcγRIIa; HIIa; not shown: 6xHis and GST tags of the pTT5 vector
T3 sequence (looked up): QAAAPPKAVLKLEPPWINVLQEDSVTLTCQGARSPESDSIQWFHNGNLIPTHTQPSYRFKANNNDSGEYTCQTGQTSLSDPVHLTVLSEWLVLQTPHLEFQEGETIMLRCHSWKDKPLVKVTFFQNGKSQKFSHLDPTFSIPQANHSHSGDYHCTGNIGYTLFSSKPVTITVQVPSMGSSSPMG

[4] = biological target: T4, human FcγRIIIa (158V), His- and GST-tagged (human, UniProt P08637 17-208); experiment: SPR
T4 construct: also called V158 FcγRIIIa; VIIIa; not shown: 6xHis and GST tags of the pTT5 vector

cynoFcγRIIIa = biological target: T5, cynoFcγRIIIa (Macaca fascicularis, UniProt Q8SPW2); experiment: SPR;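 further: fold improvement over WT IgG1 so higher means slower dissociation than WT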
T5 construct: extracellular region, C-terminal His- and GST-tag; also called cynomolgus monkey FcγRIIIa

[5] = biological target: T6, human FcγRIIb receptor protein (R&D Systems) (human, UniProt P31994 46-217); experiment: Biacore SPR, Kd(native IgG1)/Kd(variant)
T6 construct: Bought protein injected over captured antibody in Biacore; also called CD32b
T6 sequence (looked up): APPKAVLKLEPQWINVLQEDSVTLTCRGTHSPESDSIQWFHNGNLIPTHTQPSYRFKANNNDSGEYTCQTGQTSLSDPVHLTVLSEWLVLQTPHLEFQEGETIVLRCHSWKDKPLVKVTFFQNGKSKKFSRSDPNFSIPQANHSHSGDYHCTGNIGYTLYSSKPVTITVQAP

[6] = biological target: T6, human FcγRIIb receptor protein (R&D …); experiment: Biacore SPR, antibody captured on protein A/G chip, FcγR injected
[7] = biological target: T7, human FcγRIIb on cells (transfected HEK293T cells; primary human B cells) (human, UniProt P31994 43-310); experiment: flow cytometry on FcγRIIb-transfected 293T cells [middle left panel]
T7 construct: whole, on cells; also called CD32b
T7 sequence (looked up): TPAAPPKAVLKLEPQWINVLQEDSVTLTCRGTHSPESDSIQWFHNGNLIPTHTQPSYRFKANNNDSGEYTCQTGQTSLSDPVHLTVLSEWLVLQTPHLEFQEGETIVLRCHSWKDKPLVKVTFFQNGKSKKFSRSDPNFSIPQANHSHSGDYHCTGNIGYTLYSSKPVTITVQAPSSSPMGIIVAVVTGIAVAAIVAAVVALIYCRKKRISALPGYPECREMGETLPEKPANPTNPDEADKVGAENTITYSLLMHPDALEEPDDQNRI

[8] = biological target: T7, human FcγRIIb on cells (transfected …); experiment: flow cytometry on FcγRIIb-transfected 293T cells [middle right panel]
Method: In order to validate the Biacore data and evaluate receptor binding of the variants on the cell surface, binding of select antibodies to cells expressing FcγRIIb was measured. […] HEK293T cells in DMEM with 10% FBS were transfected with human FcγRIIb cDNA in pCMV6 expression vector (Origene Technologies, Rockville, Md.), cultured for 3 days, harvested, washed twice in PBS, resuspended in PBS with 0.1% BSA (PBS/BSA), and aliquoted at 2×10^5 cells per well into 96-well microtiter plates. Fc variant antibodies were serially diluted in PBS/BSA then added to the cells and incubated with mixing for 1 h at room temperature. After extensive washing with PBS/BSA, phycoerythrin (PE)-labeled anti-human-Fab-specific goat F(ab′)2 fragment was added for detection. Cells were incubated for 30 min at room temperature, washed, and resuspended in PBS/BSA. Binding was evaluated using a FACSCanto II flow cytometer (BD Biosciences, San Jose, Calif.), and the mean fluorescence intensity (MFI) was plotted as a function of antibody concentration using Graph Pad Prism software (GraphPad Software, San Diego, Calif.) from which half-maximal binding (EC50) values were determined by sigmoidal dose response modeling.

T1 sequence (P12314 16-288 limits assumed): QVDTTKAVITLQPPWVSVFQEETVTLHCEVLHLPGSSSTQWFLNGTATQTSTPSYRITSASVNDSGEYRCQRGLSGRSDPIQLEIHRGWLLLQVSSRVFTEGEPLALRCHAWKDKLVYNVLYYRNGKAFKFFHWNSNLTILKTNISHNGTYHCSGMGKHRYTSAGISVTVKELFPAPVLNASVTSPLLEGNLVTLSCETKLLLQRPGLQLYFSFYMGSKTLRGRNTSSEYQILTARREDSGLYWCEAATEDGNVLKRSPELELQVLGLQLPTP
T4 sequence (P08637 17-208 F176V): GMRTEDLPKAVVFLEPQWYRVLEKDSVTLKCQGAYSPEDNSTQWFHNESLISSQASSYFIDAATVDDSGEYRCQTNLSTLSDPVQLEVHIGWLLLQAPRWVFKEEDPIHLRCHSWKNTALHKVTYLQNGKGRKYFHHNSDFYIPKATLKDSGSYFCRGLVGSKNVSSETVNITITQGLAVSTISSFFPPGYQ
T5 sequence (Q8SPW2 17-208): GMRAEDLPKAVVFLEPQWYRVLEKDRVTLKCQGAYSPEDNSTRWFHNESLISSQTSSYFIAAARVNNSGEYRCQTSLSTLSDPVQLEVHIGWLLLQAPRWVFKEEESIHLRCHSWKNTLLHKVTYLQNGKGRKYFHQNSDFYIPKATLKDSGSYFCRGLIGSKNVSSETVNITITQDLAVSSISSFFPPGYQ

B1: anti-CD19 antibody HuAM4G7 IgG1 S267E (antibody)
heavy: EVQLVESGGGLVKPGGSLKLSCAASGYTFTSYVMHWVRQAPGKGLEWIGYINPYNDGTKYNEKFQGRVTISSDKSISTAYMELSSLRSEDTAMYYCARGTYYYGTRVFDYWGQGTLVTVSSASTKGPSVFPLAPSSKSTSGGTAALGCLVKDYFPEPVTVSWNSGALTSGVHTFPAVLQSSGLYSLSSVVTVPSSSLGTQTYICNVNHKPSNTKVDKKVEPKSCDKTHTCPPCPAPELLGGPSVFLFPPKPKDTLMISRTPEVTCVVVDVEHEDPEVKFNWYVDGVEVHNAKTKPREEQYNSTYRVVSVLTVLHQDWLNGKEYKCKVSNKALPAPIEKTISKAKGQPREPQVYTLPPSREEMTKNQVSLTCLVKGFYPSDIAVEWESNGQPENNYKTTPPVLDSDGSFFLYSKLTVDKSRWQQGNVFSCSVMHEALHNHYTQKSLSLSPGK
light: DIVMTQSPATLSLSPGERATLSCRSSKSLQNVNGNTYLYWFQQKPGQSPQLLIYRMSNLNSGVPDRFSGSGSGTEFTLTISSLEPEDFAVYYCMQHLEYPITFGAGTKLEIKRTVAAPSVFIFPPSDEQLKSGTASVVCLLNNFYPREAKVQWKVDNALQSGNSQESVTEQDSKDSTYSLSSTLTLSKADYEKHKVYACEVTHQGLSSPVTKSFNRGEC
notes: Positions in EU numbering; copies: 2 + 2
**Q.** How did the “Fold vs WT IgG1” value [1] turn out when B1 was run?
**A.** The value was 2.81 fold.

**Q.** And the Kd [1]?
**A.** Its Kd is 0.117 nM.

**Q.** What about the “Fold vs WT IgG1” value [2] of the same binder?
**A.** The value was 29.5 fold.

**Q.** And the Kd [2]?
**A.** Its Kd is 29.1 nM.

**Q.** And the “Fold vs WT IgG1” value [3]?
**A.** The value was 0.753 fold.

**Q.** What about the Kd [3] of the same binder?
**A.** Its Kd is 859 nM.

**Q.** And the “Fold vs WT IgG1” value [4]?
**A.** Its value is 0.381 fold.

**Q.** What about the Kd [4] of the same binder?
**A.** Its Kd is 503 nM.

**Q.** What about the “Fold vs WT IgG1 (off-rate)” value (cynoFcγRIIIa) of the same binder?
**A.** Its value is 0.515 fold.

**Q.** And the “fold affinity relative to native IgG1” value [5]?
**A.** The value was 20.4 fold.

**Q.** What about the Kd [6] of the same binder?
**A.** The Kd was 71.9 nM.

**Q.** And the “EC50 (read off the curve)” value [7]?
**A.** Its value is about 0.03 µg/mL.

**Q.** What about the “EC50 (read off the curve)” value [8] of the same binder?
**A.** Its value is about 0.03 µg/mL.
